Assay results taken from the supplement of paper PMC5998384.

Assays:
HeLa Kyoto [1] = test: solubility in G1/S (NP-40 vs SDS abundance) (log2 ratio); higher = more soluble; details: cell cycle stage: G1/S
HeLa Kyoto [2] = test: melting temperature (median over replicates), in situ; higher = more thermally stable
HeLa Kyoto [3] = test: solubility change mitosis vs G1/S (difference of NP-40 vs SDS log2 ratios) (log2 ratio difference); higher = more soluble in mitosis
HeLa Kyoto [4] = test: thermal stability score vs G1/S (z-score of summed log2 fold changes over temperatures); higher = more thermally stable than in G1/S
[5] = cell cycle stage: early G1 (4.5 h after nocodazole release)
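Throughout, for melting temperature (median over replicates), in situ: HeLa Kyoto cells synchronized by double thymidine or nocodazole block, proteins quantified by TMT10plex mass spectrometry, three independent biological replicates.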
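Throughout, for solubility change mitosis vs G1/S (difference of NP-40 vs SDS log2 ratios): synchronized HeLa Kyoto cells (double thymidine block for G1/S, nocodazole release for mitosis), protein amounts in NP-40 versus SDS lysates quantified by mass spectrometry, three biological replicates.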
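Throughout, for solubility in G1/S (NP-40 vs SDS abundance): HeLa Kyoto cells arrested at G1/S by double thymidine block, proteins quantified by TMT10plex mass spectrometry in mild NP-40 versus SDS extracts, three biological replicates.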
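Throughout, for thermal stability score vs G1/S (z-score of summed log2 fold changes over temperatures): synchronized HeLa Kyoto cells, proteins quantified by TMT10plex mass spectrometry, three biological replicates, mitosis taken 0.5 h after nocodazole release, G1/S directly after double thymidine block.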

Sequence	solubility in G1/S (log2) (HeLa Kyoto [1])	melting temperature (HeLa Kyoto [2]; cell cycle stage: G1/S) [°C]	melting temperature (HeLa Kyoto [2]; cell cycle stage: mitosis) [°C]	solubility change mitosis (log2) (HeLa Kyoto [3])	thermal stability score (HeLa Kyoto [4]; [5])	thermal stability score (HeLa Kyoto [4]; cell cycle stage: mitosis)
MERPLCSHLCSCLAMLALLSPLSLAQYDSWPHYPEYFQQPAPEYHQPQAPANVAKIQLRLAGQKRKHSEGRVEVYYDGQWGTVCDDDFSIHAAHVVCRELGYVEAKSWTASSSYGKGEGPIWLDNLHCTGNEATLAACTSNGWGVTDCKHTEDVGVVCSDKRIPGFKFDNSLINQIENLNIQVEDIRIRAILSTYRKRTPVMEGYVEVKEGKTWKQICDKHWTAKNSRVVCGMFGFPGERTYNTKVYKMFASRRKQRYWPFSMDCTGTEAHISSCKLGPQVSLDPMKNVTCENGLPAVVSCVPGQVFSPDGPSRFRKAYKPEQPLVRLRGGAYIGEGRVEVLKNGEWGTVCDDKWDLVSASVVCRELGFGSAKEAVTGSRLGQGIGPIHLNEIQCTGNEKSIIDCKFNAESQGCNHEEDAGVRCNTPAMGLQKKLRLNGGRNPYEGRVEVLVERNGSLVWGMVCGQNWGIVEAMVVCRQLGLGFASNAFQETWYWHGDVNSNKVVMSGVKCSGTELSLAHCRHDGEDVACPQGGVQYGAGVACSETAPDLVLNAEMVQQTTYLEDRPMFMLQCAMEENCLSASAAQTDPTTGYRRLLRFSSQIHNNGQSDFRPKNGRHAWIWHDCHRHYHSMEVFTHYDLLNLNGTKVAEGHKASFCLEDTECEGDIQKNYECANFGDQGITMGCWDMYRHDIDCQWVDITDVPPGDYLFQVVINPNFEVAESDYSNNIMKCRSRYDGHRIWMYNCHIGGSFSEETEKKFEHFSGLLNNQLSPQ [LOXL2]	-0.152	54.3	54.7	-0.173	2.38	4.28
MERQVLLSEPEEAAALYRGLSRQPALSAACLGPEVTTQYGGQYRTVHTEWTQRDLERMENIRFCRQYLVFHDGDSVVFAGPAGNSVETRGELLSRESPSGTMKAVLRKAGGTGPGEEKQFLEVWEKNRKLKSFNLSALEKHGPVYEDDCFGCLSWSHSETHLLYVAEKKRPKAESFFQTKALDVSASDDEIARLKKPDQAIKGDQFVFYEDWGENMVSKSIPVLCVLDVESGNISVLEGVPENVSPGQAFWAPGDAGVVFVGWWHEPFRLGIRFCTNRRSALYYVDLIGGKCELLSDDSLAVSSPRLSPDQCRIVYLQYPSLIPHHQCSQLCLYDWYTKVTSVVVDVVPRQLGENFSGIYCSLLPLGCWSADSQRVVFDSAQRSRQDLFAVDTQVGTVTSLTAGGSGGSWKLLTIDQDLMVAQFSTPSLPPTLKVGFLPSAGKEQSVLWVSLEEAEPIPDIHWGIRVLQPPPEQENVQYAGLDFEAILLQPGSPPDKTQVPMVVMPHGGPHSSFVTAWMLFPAMLCKMGFAVLLVNYRGSTGFGQDSILSLPGNVGHQDVKDVQFAVEQVLQEEHFDASHVALMGGSHGGFISCHLIGQYPETYRACVARNPVINIASMLGSTDIPDWCVVEAGFPFSSDCLPDLSVWAEMLDKSPIRYIPQVKTPLLLMLGQEDRRVPFKQGMEYYRALKTRNVPVRLLLYPKSTHALSEVEVESDSFMNAVLWLRTHLGS [APEH]	0.11	58.5	59.4	-0.0981	-2.58	-2.38
MERSGPSEVTGSDASGPDPQLAVTMGFTGFGKKARTFDLEAMFEQTRRTAVERSRKTLEAREKEEEMNREKELRRQNEDIEPTSSRSNVVRDCSKSSSRDTSSSESEQSSDSSDDELIGPPLPPKMVGKPVNFMEEDILGPLPPPLNEEEEEAEEEEEEEEEEENPVHKIPDSHEITLKHGTKTVSALGLDPSGARLVTGGYDYDVKFWDFAGMDASFKAFRSLQPCECHQIKSLQYSNTGDMILVVSGSSQAKVIDRDGFEVMECIKGDQYIVDMANTKGHTAMLHTGSWHPKIKGEFMTCSNDATVRTWEVENPKKQKSVFKPRTMQGKKVIPTTCTYSRDGNLIAAACQNGSIQIWDRNLTVHPKFHYKQAHDSGTDTSCVTFSYDGNVLASRGGDDSLKLWDIRQFNKPLFSASGLPTMFPMTDCCFSPDDKLIVTGTSIQRGCGSGKLVFFERRTFQRVYEIDITDASVVRCLWHPKLNQIMVGTGNGLAKVYYDPNKSQRGAKLCVVKTQRKAKQAETLTQDYIITPHALPMFREPRQRSTRKQLEKDRLDPLKSHKPEPPVAGPGRGGRVGTHGGTLSSYIVKNIALDKTDDSNPREAILRHAKAAEDSPYWVSPAYSKTQPKTMFAQVESDDEEAKNEPEWKKRKI [WDR70]	-0.0649	53.3	53.2	-0.0897	-0.26	-0.746
MESALPAAGFLYWVGAGTVAYLALRISYSLFTALRVWGVGNEAGVGPGLGEWAVVTGSTDGIGKSYAEELAKHGMKVVLISRSKDKLDQVSSEIKEKFKVETRTIAVDFASEDIYDKIKTGLAGLEIGILVNNVGMSYEYPEYFLDVPDLDNVIKKMININILSVCKMTQLVLPGMVERSKGAILNISSGSGMLPVPLLTIYSATKTFVDFFSQCLHEEYRSKGVFVQSVLPYFVATKLAKIRKPTLDKPSPETFVKSAIKTVGLQSRTNGYLIHALMGSIISNLPSWIYLKIVMNMNKSTRAHYLKKTKKN [HSD17B12]	0.079	53.9	53.7	-0.194	-1.05	-1.18
MESCYNPGLDGIIEYDDFKLNSSIVEPKEPAPETADGPYLVIVEQPKQRGFRFRYGCEGPSHGGLPGASSEKGRKTYPTVKICNYEGPAKIEVDLVTHSDPPRAHAHSLVGKQCSELGICAVSVGPKDMTAQFNNLGVLHVTKKNMMGTMIQKLQRQRLRSRPQGLTEAEQRELEQEAKELKKVMDLSIVRLRFSAFLRASDGSFSLPLKPVISQPIHDSKSPGASNLKISRMDKTAGSVRGGDEVYLLCDKVQKDDIEVRFYEDDENGWQAFGDFSPTDVHKQYAIVFRTPPYHKMKIERPVTVFLQLKRKRGGDVSDSKQFTYYPLVEDKEEVQRKRRKALPTFSQPFGGGSHMGGGSGGAAGGYGGAGGGGSLGFFPSSLAYSPYQSGAGPMGCYPGGGGGAQMAATVPSRDSGEEAAEPSAPSRTPQCEPQAPEMLQRAREYNARLFGLAQRSARALLDYGVTADARALLAGQRHLLTAQDENGDTPLHLAIIHGQTSVIEQIVYVIHHAQDLGVVNLTNHLHQTPLHLAVITGQTSVVSFLLRVGADPALLDRHGDSAMHLALRAGAGAPELLRALLQSGAPAVPQLLHMPDFEGLYPVHLAVRARSPECLDLLVDSGAEVEATERQGGRTALHLATEMEELGLVTHLVTKLRANVNARTFAGNTPLHLAAGLGYPTLTRLLLKAGADIHAENEEPLCPLPSPPTSDSDSDSEGPEKDTRSSFRGHTPLDLTCSTKVKTLLLNAAQNTMEPPLTPPSPAGPGLSLGDTALQNLEQLLDGPEAQGSWAELAERLGLRSLVDTYRQTTSPSGSLLRSYELAGGDLAGLLEALSDMGLEEGVRLLRGPETRDKLPSTAEVKEDSAYGSQSVEQEAEKLGPPPEPPGGLCHGHPQPQVH [NFKB2]	0.18	47.5	48.3	-0.0485	1.06	3.27
MESKALLVLTLAVWLQSLTASRGGVAAADQRRDFIDIESKFALRTPEDTAEDTCHLIPGVAESVATCHFNHSSKTFMVIHGWTVTGMYESWVPKLVAALYKREPDSNVIVVDWLSRAQEHYPVSAGYTKLVGQDVARFINWMEEEFNYPLDNVHLLGYSLGAHAAGIAGSLTNKKVNRITGLDPAGPNFEYAEAPSRLSPDDADFVDVLHTFTRGSPGRSIGIQKPVGHVDIYPNGGTFQPGCNIGEAIRVIAERGLGDVDQLVKCSHERSIHLFIDSLLNEENPSKAYRCSSKEAFEKGLCLSCRKNRCNNLGYEINKVRAKRSSKMYLKTRSQMPYKVFHYQVKIHFSGTESETHTNQAFEISLYGTVAESENIPFTLPEVSTNKTYSFLIYTEVDIGELLMLKLKWKSDSYFSWSDWWSSPGFAIQKIRVKAGETQKKVIFCSREKVSHLQKGKAPAVFVKCHDKSLNKKSG [LPL]	-0.0225	53.9	53.7	-0.028	-1.96	-2.52
MESPGESGAGSPGAPSPSSFTTGHLAREKPAQDPLYDVPNASGGQAGGPQRPGRVVSLRERLLLTRPVWLQLQANAAAALHMLRTEPPGTFLVRKSNTRQCQALCMRLPEASGPSFVSSHYILESPGGVSLEGSELMFPDLVQLICAYCHTRDILLLPLQLPRAIHHAATHKELEAISHLGIEFWSSSLNIKAQRGPAGGPVLPQLKARSPQELDQGTGAALCFFNPLFPGDLGPTKREKFKRSFKVRVSTETSSPLSPPAVPPPPVPVLPGAVPSQTERLPPCQLLRRESSVGYRVPAGSGPSLPPMPSLQEVDCGSPSSSEEEGVPGSRGSPATSPHLGRRRPLLRSMSAAFCSLLAPERQVGRAAAALMQDRHTAAGQLVQDLLTQVRAGPEPQELQGIRQALSRARAMLSAELGPEKLLSPKRLEHVLEKSLHCSVLKPLRPILAARLRRRLAADGSLGRLAEGLRLARAQGPGAFGSHLSLPSPVELEQVRQKLLQLLRTYSPSAQVKRLLQACKLLYMALRTQEGEGAGADEFLPLLSLVLAHCDLPELLLEAEYMSELLEPSLLTGEGGYYLTSLSASLALLSGLGQAHTLPLSPVQELRRSLSLWEQRRLPATHCFQHLLRVAYQDPSSGCTSKTLAVPPEASIATLNQLCATKFRVTQPNTFGLFLYKEQGYHRLPPGALAHRLPTTGYLVYRRAEWPETQGAVTEEEGSGQSEARSRGEEQGCQGDGDAGVKASPRDIREQSETTAEGGQGQAQEGPAQPGEPEAEGSRAAEE [RIN1]	0.282	48.9	48.6	-0.062	0.0327	1.21
MESRDPAQPMSPGEATQSGARPADRYGLLKHSREFLDFFWDIAKPEQETRLAATEKLLEYLRGRPKGSEMKYALKRLITGLGVGRETARPCYSLALAQLLQSFEDLPLCSILQQIQEKYDLHQVKKAMLRPALFANLFGVLALFQSGRLVKDQEALMKSVKLLQALAQYQNHLQEQPRKALVDILSEVSKATLQEILPEVLKADLNIILSSPEQLELFLLAQQKVPSKLKKLVGSVNLFSDENVPRLVNVLKMAASSVKKDRKLPAIALDLLRLALKEDKFPRFWKEVVEQGLLKMQFWPASYLCFRLLGAALPLLTKEQLHLVMQGDVIRHYGEHVCTAKLPKQFKFAPEMDDYVGTFLEGCQDDPERQLAVLVAFSSVTNQGLPVTPTFWRVVRFLSPPALQGYVAWLRAMFLQPDLDSLVDFSTNNQKKAQDSSLHMPERAVFRLRKWIIFRLVSIVDSLHLEMEEALTEQVARFCLFHSFFVTKKPTSQIPETKHPFSFPLENQAREAVSSAFFSLLQTLSTQFKQAPGQTQGGQPWTYHLVQFADLLLNHSHNVTTVTPFTAQQRQAWDRMLQTLKELEAHSAEARAAAFQHLLLLVGIHLLKSPAESCDLLGDIQTCIRKSLGEKPRRSRTKTIDPQEPPWVEVLVEILLALLAQPSHLMRQVARSVFGHICSHLTPRALQLILDVLNPETSEDENDRVVVTDDSDERRLKGAEDKSEEGEDNRSSESEEESEGEESEEEERDGDVDQGFREQLMTVLQAGKALGGEDSENEEELGDEAMMALDQSLASLFAEQKLRIQARRDEKNKLQKEKALRRDFQIRVLDLVEVLVTKQPENALVLELLEPLLSIIRRSLRSSSSKQEQDLLHKTARIFTHHLCRARRYCHDLGERAGALHAQVERLVQQAGRQPDSPTALYHFNASLYLLRVLKGNTAEGCVHETQEKQKAGTDPSHMPTGPQAASCLDLNLVTRVYSTALSSFLTKRNSPLTVPMFLSLFSRHPVLCQSLLPILVQHITGPVRPRHQACLLLQKTLSMREVRSCFEDPEWKQLMGQVLAKVTENLRVLGEAQTKAQHQQALSSLELLNVLFRTCKHEKLTLDLTVLLGVLQGQQQSLQQGAHSTGSSRLHDLYWQAMKTLGVQRPKLEKKDAKEIPSATQSPISKKRKKKGFLPETKKRKKRKSEDGTPAEDGTPAATGGSQPPSMGRKKRNRTKAKVPAQANGTPTTKSPAPGAPTRSPSTPAKSPKLQKKNQKPSQVNGAPGSPTEPAGQKQHQKALPKKGVLGKSPLSALARKKARLSLVIRSPSLLQSGAKKKAQVRKAGKP [MYBBP1A]	-0.42	48.1	48.9	0.349	0.7	2.36
